Assay results: PMC12440825, “SNARE disassembly requires Sec18/NSF side loading” (Nature Structural & Molecular Biology, 2025)

T1: yeast exocytic SNARE complex Sso1–Sec9–Snc1 (S. cerevisiae, UniProt P32867 1-265; P40357 401-651; P31109 1-93)
T1 construct: Sso1, S. cerevisiae, residues 1-265; as m4; Sec9, S. cerevisiae, residues 401-651; as m5; Snc1, S. cerevisiae, residues 1-93; as m6; also called ySNARE complex; yeast exocytic complex; source: E. coli BL21(DE3), each SNARE purified, mixed 1:1:1 in 6 M GdHCl, dialysed, purified (MonoQ); not shown: His6, N-terminal, cleaved; copies: 1 + 1 + 1
T1 sequence (looked up) 1: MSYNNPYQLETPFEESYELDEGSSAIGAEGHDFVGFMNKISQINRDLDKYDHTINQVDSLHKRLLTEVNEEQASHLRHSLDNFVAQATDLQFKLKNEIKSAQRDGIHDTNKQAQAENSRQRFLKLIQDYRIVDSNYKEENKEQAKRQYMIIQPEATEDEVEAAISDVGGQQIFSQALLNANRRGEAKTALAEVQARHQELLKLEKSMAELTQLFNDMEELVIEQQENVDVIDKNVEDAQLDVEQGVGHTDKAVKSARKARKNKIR
T1 sequence (looked up) 2: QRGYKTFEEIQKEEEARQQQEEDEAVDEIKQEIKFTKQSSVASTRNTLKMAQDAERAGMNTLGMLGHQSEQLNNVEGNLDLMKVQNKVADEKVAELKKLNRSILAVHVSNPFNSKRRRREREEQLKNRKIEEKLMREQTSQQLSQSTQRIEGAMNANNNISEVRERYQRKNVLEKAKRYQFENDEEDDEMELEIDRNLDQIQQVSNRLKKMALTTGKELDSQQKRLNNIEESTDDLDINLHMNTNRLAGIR
T1 sequence (looked up) 3: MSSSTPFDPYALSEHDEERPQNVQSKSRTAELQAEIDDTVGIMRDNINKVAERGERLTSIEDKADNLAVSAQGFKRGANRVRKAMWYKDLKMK

B1: Sso1 (1–265) (domain or fragment, S. cerevisiae, UniProt P32867 1-265, looked up)
chain: T1 sequence (looked up) 1
notes: Sso1, S. cerevisiae syntaxin-like SNARE, residues 1-265 (Habc domain, linker, SNARE domain; no transmembrane domain); also called SNARE Sso1; source: E. coli BL21(DE3), purified (Ni-NTA, TEV, ion exchange, SEC); not shown: His6, N-terminal, cleaved
B2: NSF (N-ethylmaleimide-sensitive factor) (enzyme, C. griseus)
chain: MAGRSMQAARCPTDELSLSNCAVVSEKDYQSGQHVIVRTSPNHKYIFTLRTHPSVVPGSVAFSLPQRKWAGLSIGQEIEVALYSFDKAKQCIGTMTIEIDFLQKKNIDSNPYDTDKMAAEFIQQFNNQAFSVGQQLVFSFNDKLFGLLVKDIEAMDPSILKGEPASGKRQKIEVGLVVGNSQVAFEKAENSSLNLIGKAKTKENRQSIINPDWNFEKMGIGGLDKEFSDIFRRAFASRVFPPEIVEQMGCKHVKGILLYGPPGCGKTLLARQIGKMLNAREPKVVNGPEILNKYVGESEANIRKLFADAEEEQRRLGANSGLHIIIFDEIDAICKQRGSMAGSTGVHDTVVNQLLSKIDGVEQLNNILVIGMTNRPDLIDEALLRPGRLEVKMEIGLPDEKGRLQILHIHTARMRGHQLLSADVDIKELAVETKNFSGAELEGLVRAAQSTAMNRHIKASTKVEVDMEKAESLQVTRGDFLASLENDIKPAFGTNQEDYASYIMNGIIKWGDPVTRVLDDGELLVQQTKNSDRTPLVSVLLEGPPHSGKTALAAKIAEESNFPFIKICSPDKMIGFSETAKCQAMKKIFDDAYKSQLSCVVVDDIERLLDYVPIGPRFSNLVLQALLVLLKKAPPQGRKLLIIGTTSRKDVLQEMEMLNAFSTTIHVPNIATGEQLLEALELLGNFKDKERTTIAQQVKGKKVWIGIKKLLMLIEMSLQMDPEYRVRKFLALLREEGASPLDFD
notes: Heptamer (class 1) or hexamer (classes 2-4) with ATP and Mg2+; also called substrate-free NSF; high-purity NSF
B3: Sec18 (recombinant, complete coding sequence) (enzyme, S. cerevisiae, UniProt P18759 1-758, looked up)
chain: MFKIPGFGKAAANHTPPDMTNMDTRTRHLKVSNCPNNSYALANVAAVSPNDFPNNIYIIIDNLFVFTTRHSNDIPPGTIGFNGNQRTWGGWSLNQDVQAKAFDLFKYSGKQSYLGSIDIDISFRARGKAVSTVFDQDELAKQFVRCYESQIFSPTQYLIMEFQGHFFDLKIRNVQAIDLGDIEPTSAVATGIETKGILTKQTQINFFKGRDGLVNLKSSNSLRPRSNAVIRPDFKFEDLGVGGLDKEFTKIFRRAFASRIFPPSVIEKLGISHVKGLLLYGPPGTGKTLIARKIGTMLNAKEPKIVNGPEILSKYVGSSEENIRNLFKDAEAEYRAKGEESSLHIIIFDELDSVFKQRGSRGDGTGVGDNVVNQLLAKMDGVDQLNNILVIGMTNRKDLIDSALLRPGRFEVQVEIHLPDEKGRLQIFDIQTKKMRENNMMSDDVNLAELAALTKNFSGAEIEGLVKSASSFAINKTVNIGKGATKLNTKDIAKLKVTREDFLNALNDVTPAFGISEEDLKTCVEGGMMLYSERVNSILKNGARYVRQVRESDKSRLVSLLIHGPAGSGKTALAAEIALKSGFPFIRLISPNELSGMSESAKIAYIDNTFRDAYKSPLNILVIDSLETLVDWVPIGPRFSNNILQMLKVALKRKPPQDRRLLIMTTTSAYSVLQQMDILSCFDNEIAVPNMTNLDELNNVMIESNFLDDAGRVKVINELSRSCPNFNVGIKKTLTNIETARHDEDPVNELVELMTQSA
notes: Hexamer in the y20S complex; heptamer or split hexamer with ATP and Mg2+; No TEV cleavage is described for the preparation used for y20S; also called wild-type Sec18; substrate-free Sec18; source: E. coli BL21(DE3), purified (Ni-NTA, SEC)
B4: Snc1 (1–93) (domain or fragment, S. cerevisiae, UniProt P31109 1-93, looked up)
chain: T1 sequence (looked up) 3
notes: Snc1, S. cerevisiae synaptobrevin-like SNARE, residues 1-93; source: E. coli BL21(DE3), purified (Ni-NTA, TEV, ion exchange, SEC); not shown: His6, N-terminal, cleaved
B5: Sec17 (natural protein, S. cerevisiae, UniProt P32602 1-292, looked up)
chain: MSDPVELLKRAEKKGVPSSGFMKLFSGSDSYKFEEAADLCVQAATIYRLRKELNLAGDSFLKAADYQKKAGNEDEAGNTYVEAYKCFKSGGNSVNAVDSLENAIQIFTHRGQFRRGANFKFELGEILENDLHDYAKAIDCYELAGEWYAQDQSVALSNKCFIKCADLKALDGQYIEASDIYSKLIKSSMGNRLSQWSLKDYFLKKGLCQLAATDAVAAARTLQEGQSEDPNFADSRESNFLKSLIDAVNEGDSEQLSEHCKEFDNFMRLDKWKITILNKIKESIQQQEDDLL
notes: also called Sec17/α-SNAP; adaptor Sec17; source: E. coli BL21(DE3), purified (Ni-NTA, TEV, MonoQ, SEC); not shown: His10, N-terminal, cleaved
B6: Sec9 (401–651) (domain or fragment, S. cerevisiae, UniProt P40357 401-651, looked up)
chain: T1 sequence (looked up) 2
notes: Sec9, S. cerevisiae SNAP25-like SNARE, residues 401-651; source: E. coli BL21(DE3), purified (Ni-NTA, TEV, MonoS, SEC); not shown: His6, N-terminal, cleaved

Key:
[1] = target: B3; assay: cryo-EM structure; y20S complex in the hydrolyzing condition: as nonhydrolyzing, excess MgCl2 added on the grid, 7 s before vitrification; classes 1-4; conditions: both partners purified
[2] = target: the molecule itself; assay: cryo-EM structure; substrate-free NSF in the hydrolyzing condition: buffer with ATP and 1 mM MgCl2 instead of EDTA, final SEC; four classes, 3DVA of class 3
[3] = target: the molecule itself; assay: cryo-EM structure; y20S complex in the nonhydrolyzing condition: preformed ySNARE complex + Sec17 + EDTA-quenched Sec18 (Sec18:SNARE:Sec17 1:1.67:10) in 50 mM Tris, 150 mM NaCl, 1 mM TCEP, 1 mM ATP, 1 mM EDTA pH 8, Superose 6; eight 3D classes
[4] = target: the molecule itself; assay: cryo-EM structure; y20S complex in the hydrolyzing condition: as nonhydrolyzing, excess MgCl2 added on the grid, 7 s before vitrification; classes 1-4
Sec9 (401–651) = target: B6; assay: cryo-EM structure; y20S complex in the nonhydrolyzing condition: preformed ySNARE complex + Sec17 + EDTA-quenched Sec18 (Sec18:SNARE:Sec17 1:1.67:10) in 50 mM Tris, 150 mM NaCl, 1 mM TCEP, 1 mM ATP, 1 mM EDTA pH 8, Superose 6; eight 3D classes; conditions: both partners purified
Sso1 (1–265) = target: B1; assay: as above; conditions: both partners purified
[5] = target: T1, yeast exocytic SNARE complex …; assay: as above; conditions: both partners purified

Binder: B1
binding result [1]: binds

Binder: B2
stoichiometry N [2]: 7

Binder: B3
stoichiometry N [3]: 6 | stoichiometry N [4]: 7

Binder: B4
binding result (Sec9 (401–651)): binds | binding result (Sso1 (1–265)): binds

Binder: B5
binding result [5]: binds | binding result [1]: binds

Binder: B6
binding result (Sso1 (1–265)): binds
